Assay results as given in the supplement of paper PMC12764529.
± gives the half width of the 95% confidence interval.

Experiments:
[1] = folding stability dG unfold (combined trypsin and chymotrypsin); higher = more stable
Summary of the method: (§1)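 Mini-proteins designed to be under 80 residues and free of cysteine were carried in a PA-tagged cDNA display construct and digested with trypsin and with chymotrypsin. Each protease was applied at 11 threefold-diluted concentrations, alongside a no-protease condition, before sequencing. K50 came from Bayesian fitting of the sequencing counts, and unfolding free energy was obtained by comparing it with a sequence-predicted unfolded-state K50 and a shared folded-state K50, for each protease separately or for both together. Designs were retained only if their AlphaFold2 dimer inter-PAE exceeded 15.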

[2] = folding stability dG unfold from chymotrypsin proteolysis; higher = more stable
Summary of the method: as §1

| Sequence | folding stability dG unfold [1] | folding stability dG unfold [2] |
| --- | --- | --- |
| SAGGSAGGSTLVFAPDDTLYLRIYLPETGGWRYIEVPAGQADSVARPLGAVRLEAYRRDEPVPSAGGSAGGS [r12_294_TrMRF] | 0.123 ± 0.15 kcal/mol | 0.83 ± 0.23 kcal/mol |
| SAGGSAGGSTVEELKKKAKELGLEVTVEKNKKDKKKITITVSEEAKKKLKEIAKEENIKVEIKSAGGSAGGS [r12_74_TrROS_Hall] | -0.473 ± 0.47 kcal/mol | 0.0632 ± 0.051 kcal/mol |
| SAGGSAGGSVIPFPGNSRIYVTEVREDGVKIKFPDIGTEITVPANVPINLVGNPTIGPDGTPYSAGGSAGGS [r20_105_TrMRF] | < -1 kcal/mol | -0.946 ± 0.53 kcal/mol |
| SAGGSAGGSVTAVPIEELIPLPTPRTLKVTGTVYVLPGGEVVTERTLTEPSPGTVTVETKTIPLSAGGSAGG [r6_727_JUSTAS] | < -1 kcal/mol | -0.517 ± 0.4 kcal/mol |
| SAGGSAGGWFWVIKAEYPKNGRERSIQIPNEATDEDDVKEEVKELAEDLGAPIKKVEIEWIDPESAGGSAGG [r6_718_TrROS] | < -1 kcal/mol | -0.474 ± 0.34 kcal/mol |
| SAGGSAGGWVEQTYMVPPDMPVNMIKNKLEPWGVEIDDVEPFPNGNSIVTITIPPEFLKDPDEKSAGGSAGG [r6_470_TrROS] | -0.262 ± 0.51 kcal/mol | 0.574 ± 0.22 kcal/mol |
| SAGGSAGMKNVVKPVAPGTSMTLKVTKPDGTPRTLTFPPNYTATVKTLPEGGKDEIISLEPVPPELSAGGSA [r15_82_JUSTAS] | < -1 kcal/mol | -0.82 ± 0.53 kcal/mol |
| SAGGSAGPMVKTTEFSAVYTGPGGVSRGPVAVTVEIPPGDPSNPVLTVTLPDGTPRTLAAGEVEAASAGGSA [r15_954_JUSTAS] | -0.757 ± 0.27 kcal/mol | -0.672 ± 0.36 kcal/mol |
| SAGGSAGSHNQSPDGITLDAPLSSEEEIEALVAEVKAAAPPTYTVTVERTRSPSTLSVDVIVTAAPSAGGSA [r15_80_JUSTAS] | -0.895 ± 0.97 kcal/mol | -0.579 ± 0.19 kcal/mol |
| SAGGSAIKPGDPYVRIKFRMGNEPMEFTIPAEKIKKITVDDPDDQVTIRFPGNGRKFPMKLEEVEISAGGSA [r15_495_TrROS] | -0.41 ± 0.25 kcal/mol | -0.316 ± 0.33 kcal/mol |
| SAGGSALTIKVKDPEDIKDLEIQVYLPDGRPMLMKIEVQRDEGPPYVKIKAENPGNGKKRKETFPFSAGGSA [r15_1006_TrROS] | -0.243 ± 0.62 kcal/mol | 0.0249 ± 0.53 kcal/mol |
| SAGGSAMFTSSTSTDPATGLRRTTTLFPDSSAAVTTTVAVPPVPPLSPEAVAAGEAAAAAGRPPAVSAGGSA [r15_631_JUSTAS] | < -1 kcal/mol | 0.59 ± 0.17 kcal/mol |
| SAGGSAMKIEVEEFPVLVPPELIPELKDKPGAIVKVKKVKFYAEAPEEEREKLKKELEEKTGIKTESAGGSA [r15_347_TrMRF] | < -1 kcal/mol | 0.0727 ± 0.61 kcal/mol |
| SAGGSAMKTSLSRSTSTDPSDPNVTYKTTTTFLPDNTVLTNTTTTTRVGSSDVTTTTTTTTPIPAASAGGSA [r15_553_JUSTAS] | 0.135 ± 0.18 kcal/mol | 0.409 ± 0.18 kcal/mol |
| SAGGSAMKVEKEGDKVTIIVNAPESLNDKKVLTEKIKKAIEENKNKEVEIIAPPKYKPYAEETIKNSAGGSA [r15_89_JUSTAS] | -0.558 ± 0.39 kcal/mol | -0.217 ± 0.52 kcal/mol |
| SAGGSAMPSPITVTTFPGGTARLVEFPDGSTAVVEIVEEGPERVLVTTTTPPDGVPTTSVVPAAELSAGGSA [r15_941_JUSTAS] | -0.537 ± 0.21 kcal/mol | -0.0657 ± 0.072 kcal/mol |
| SAGGSAMSRTITVEITDPRNGKKLKNVVIDVPEDEDISDEEILKKIGIPEKEAKNIKVSKTTEELESAGGSA [r15_665_JUSTAS] | 0.169 ± 0.19 kcal/mol | 0.365 ± 0.17 kcal/mol |
| SAGGSAMTPQTLTLPDGTQVTVYYDPSTGKYTITTTTTTPTAQGTGPTTTTTKTVDSEEELLAYLSSAGGSA [r15_31_JUSTAS] | 4.5 ± 0.2 kcal/mol | 4.37 ± 0.13 kcal/mol |
| SAGGSAMVVVKITNPNGEKIEIEIEAETEEEAKKAAEELAKKLPKNVKVEVVKVEKVEVKDGKILKSAGGSA [r15_469_TrROS_Hall] | < -1 kcal/mol | -0.919 ± 0.74 kcal/mol |
| SAGGSANAEEIADWLQDRGFKEVEIEKDPENGNVTVEIRNPGGYEWELTINPKNPKITEIEPRPKKSAGGSA [r15_648_TrROS] | -0.523 ± 0.42 kcal/mol | 0.0797 ± 0.097 kcal/mol |
| SAGGSAPVIVKEASLEEIKELKKKGVKKIILVEKNPEIAEKIKKEFEKEDDIPIETVSEEEAKKLKSAGGSA [r15_243_TrMRF] | -0.718 ± 0.28 kcal/mol | -0.294 ± 0.13 kcal/mol |
| SAGGSARVVTAVARHPNSTEATLTVTDSGAAGGTSEITFASPEDLLAAIRNLPASVASVSVRPLLPSAGGSA [r15_589_TrMRF] | 0.422 ± 0.092 kcal/mol | 0.806 ± 0.028 kcal/mol |
| SAGGSASPELQKRIKDALQEENPDYPVTVDEVDPKNNTIMITFNSPWHQKRIEKALKEDGIKITIYSAGGSA [r15_196_TrROS] | -0.618 ± 0.27 kcal/mol | -0.0514 ± 0.38 kcal/mol |
| SAGGSAVGYYVETEIEKVEEKTYTFKPDGSPLKYFKNVKKNIKVKKVYVVKPTPDNSVIVDPNIPLSAGGSA [r15_162_JUSTAS] | < -1 kcal/mol | -0.618 ± 0.46 kcal/mol |
| SAGGSDPVSVSTEGGNTYVTVGDTPVLRLSKGKPEPPVLVTLPNGEVIEMPRSEALARDPSTIEFTPGSAGG [r13_802_JUSTAS] | -0.118 ± 0.12 kcal/mol | 0.368 ± 0.042 kcal/mol |

| Sequence | folding stability dG unfold [1] | folding stability dG unfold [2] |
| --- | --- | --- |
| SAGGSITTEKSLPETNLTLKTTYEGDTETVEIYHHPESDTPVLLAKETVTFSPDGSVSRKSTVVKIESAGGS [r8_69_JUSTAS] | -0.483 ± 0.27 kcal/mol | -0.0855 ± 0.17 kcal/mol |
| SAGGSMETTTLSSTPAELIATVEAEAAAAGKTISEITVTEDPATGLATVPVTIEITPAPALAPAARRSAGGS [r16_584_JUSTAS] | 0.249 ± 0.21 kcal/mol | 0.722 ± 0.065 kcal/mol |
| SAGGSMKVEYDESTGVTTITLPDGSTITFPAEDTGLTVEASLEDDTLTITVKDPNNPVPLETRTIPSSSAGG [r13_938_JUSTAS] | 0.393 ± 0.18 kcal/mol | 0.935 ± 0.036 kcal/mol |
| SAGGSNKNSPEDQKRKQQPPQPKVRTIPGPLSEDQIKNLLDNGQPIIIEGPDGEWWVIKNNEIEPISAGGSA [r2_33_TrROS] | -0.0552 ± 0.24 kcal/mol | 0.255 ± 0.14 kcal/mol |
| SAGGSPPYVNISMRRTPNGNMPLKVEIYDKDNEPVAEQEIEIPDMEPGEQWNFTIPIEPNMKLRIESAGGSA [r2_288_TrROS] | -0.132 ± 0.12 kcal/mol | 0.456 ± 0.13 kcal/mol |
| SAGGSVLVTLTNPADGTPVTLPTPAEEAEAILASGDTAALEARHPGRPVAAVTVDPVSPRPPVPPGLASAGG [r13_629_JUSTAS] | -0.651 ± 0.38 kcal/mol | 0.223 ± 0.095 kcal/mol |
| SAGGSVTLPPEEARAYAEAHPDRDLVLSMRPDDSTVTLELSVDPAAPGALSVRRREVFDPAGNATVVDSAGG [r13_481_JUSTAS] | -0.182 ± 0.15 kcal/mol | 0.308 ± 0.13 kcal/mol |
| SAGGSVVTGVDEEELRAVAEALRAAGHTLADVRIERYPEDGTYRMTVTLVDPATAAPLADVLMVAKASAGGS [r16_750_JUSTAS] | 0.312 ± 0.15 kcal/mol | 0.887 ± 0.13 kcal/mol |
| SAGGTIEEIRDQLKNMPPGYHVDLKIPNGRSHSFGSLEDIEDLPITNPNGRKIEITEVQPMPPPDEQSAGGS [r16_680_TrROS] | -0.703 ± 0.68 kcal/mol | 0.195 ± 0.16 kcal/mol |
| SAGGTTTRTTVYFDDGKVYELTDPEEVEKTIKEKLGKNYKIVSEEEYTEPSPDGPPLPARRLKLKKKSAGGS [r16_408_JUSTAS] | < -1 kcal/mol | -0.795 ± 0.33 kcal/mol |
| SAGGVIGTRKKVNKIEKPVPEGATTTPSIIGNTTILTTTAPDGSTVTVTLTKTEPIPGKPDVSEKYEASAGG [r13_804_JUSTAS] | -0.265 ± 0.12 kcal/mol | 0.11 ± 0.042 kcal/mol |
| SAGKTIYIQGPLDELRKLPEIKEVEKTGNHWTLELPNVPIHIEIEPPPPVPVVPPEMPKEQMKEYMKKMSAG [r5_2_TrROS] | 0.316 ± 0.37 kcal/mol | 0.646 ± 0.32 kcal/mol |
| SAGMDEYIRELIEKLPSENPSTSPITYRDKNIEAVTYYPSTNTTTFHFPGGEVISASPSTSIEEILKELSAG [r14_59_JUSTAS] | -0.193 ± 0.19 kcal/mol | 0.198 ± 0.22 kcal/mol |
| SAGMEEILEAAREAIEAGLTVRIEVTFKDGKKEEIEIEVESLEELLEALEKLDEIESVKIEVLAPGEEPSAG [r5_956_TrROS_Hall] | 3.61 ± 0.95 kcal/mol | 2.95 ± 0.15 kcal/mol |
| SAGMITLEKTVPLSEATPEKAKEIAEELLEKLKKEGLPEGLEKTSIEITELPGDELIVKVPTKIVSKESAGG [r19_87_JUSTAS] | < -1 kcal/mol | -0.556 ± 0.14 kcal/mol |
| SAGMITRTITTVDPVDPALVAAISPDLVFPDGSTVSRDGDRLVITTPVTLALPPSPDPAGQLVLPTAASAGG [r19_148_JUSTAS] | -0.00544 ± 0.17 kcal/mol | 0.483 ± 0.087 kcal/mol |
| SAGMKTLTGPPEVLEELVEKALKENPNAKTVTIVDGDKSVTVPKDEEVEFLEPAPQPDGEPYVTIEILESAG [r5_130_JUSTAS] | 0.101 ± 0.13 kcal/mol | 0.669 ± 0.048 kcal/mol |
| SAGMKVVRTRTVWADDSDNPTPLAPEVELVRDAPPTFPLPVTVTTPDGRPYTGTLIALDPDREGLVLGGSAG [r5_735_TrMRF] | -0.29 ± 0.19 kcal/mol | 0.254 ± 0.17 kcal/mol |
| SAGMMRVEVFGDGELLEVTELDGDTVEVPVPPERHRVRVFAPGDDRAAEAEVDPAKGVVVLKVPADARISAG [r5_469_TrMRF] | -0.821 ± 0.38 kcal/mol | -0.197 ± 0.24 kcal/mol |
| SAGMPVLVSAPIPLARGPDGVARIDPALVRALAEAAGFTGRVESVEVRPLPDSYLVAVRLPDSVLLGESAGG [r19_398_TrMRF] | -0.31 ± 0.11 kcal/mol | 0.672 ± 0.077 kcal/mol |
| SAGMSSTPQKIVRTTGSTPLPDGSAVSTTTTTYSDGSSTVTTAIPGGLETRATVPPDGTVTTTTAPLLGSAG [r5_168_JUSTAS] | -0.422 ± 0.26 kcal/mol | -0.248 ± 0.23 kcal/mol |
| SAGMVKINVAKLPDGKYVITVVDANDGTPLLELPVDSPEGAEKAAKAIAEELKKKYPDATVEVDYTDFESAG [r5_383_TrMRF] | 4.13 ± 0.64 kcal/mol | 3.49 ± 0.19 kcal/mol |
| SAGNPSLKLKTETQVEVTEVSESVLPDGGYTLTKSKFTVTTTIYDTTKPKVLSTETTEETETVATPLVSAGG [r19_136_JUSTAS] | 0.0701 ± 0.07 kcal/mol | 0.442 ± 0.11 kcal/mol |
| SAGPLEELLARAERVEEDPSTGKRLVYTSDPELVRAALAEGAPDYTLTESPDDRRSALINFPPLPPGVLSAG [r14_115_JUSTAS] | -0.0125 ± 0.14 kcal/mol | 0.32 ± 0.14 kcal/mol |
